The results in this text go back to publication PMC10091538, “The H2TH-like motif of the Escherichia coli multifunctional protein KsgA is required for DNA binding involved in DNA repair and the suppression of mutation frequencies”.

First the molecules themselves.
T1: His-KsgA (9-273) (Escherichia coli, UniProt P06992 9-273, del1-8)
T1 sequence: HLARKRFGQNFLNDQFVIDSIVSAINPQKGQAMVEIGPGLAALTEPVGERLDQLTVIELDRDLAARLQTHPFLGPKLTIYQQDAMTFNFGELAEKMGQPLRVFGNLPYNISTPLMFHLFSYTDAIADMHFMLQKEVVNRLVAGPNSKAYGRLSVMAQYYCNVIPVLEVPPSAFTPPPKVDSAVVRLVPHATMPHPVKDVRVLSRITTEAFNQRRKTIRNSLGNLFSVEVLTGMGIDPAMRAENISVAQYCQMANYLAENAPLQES

T2: His-KsgA (1-213) (Escherichia coli, UniProt P06992 1-213, del214-273)
T2 sequence: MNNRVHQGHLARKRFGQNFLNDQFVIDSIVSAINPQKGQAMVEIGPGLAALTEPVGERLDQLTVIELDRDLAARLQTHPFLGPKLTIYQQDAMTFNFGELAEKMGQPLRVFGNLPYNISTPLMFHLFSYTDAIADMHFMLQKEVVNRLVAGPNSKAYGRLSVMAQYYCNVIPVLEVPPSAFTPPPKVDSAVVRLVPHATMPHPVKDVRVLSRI

T3: His-KsgA (1-273) (Escherichia coli, UniProt P06992 1-273)
T3 sequence: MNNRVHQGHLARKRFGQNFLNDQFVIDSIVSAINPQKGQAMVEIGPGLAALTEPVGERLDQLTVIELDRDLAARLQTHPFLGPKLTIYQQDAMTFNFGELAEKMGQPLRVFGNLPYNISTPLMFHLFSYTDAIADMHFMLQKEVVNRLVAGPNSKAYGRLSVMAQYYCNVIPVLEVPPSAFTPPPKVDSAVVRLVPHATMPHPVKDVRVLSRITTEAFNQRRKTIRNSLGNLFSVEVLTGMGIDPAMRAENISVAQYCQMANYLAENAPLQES

B1: Tg/C duplex (dsDNA)
DNA 1: GCTGCCCGGGGGTTCCTCTTGTTC
DNA 2: GAACAAGAGTAACCCCCGGGCAGC
modifications: thymine glycol (Tg) opposite C
B2: 5-foU/C duplex (dsDNA)
DNA 1: GGTACCTTCAGTCGACC
DNA 2: GGTCGACTUAAGGTACC
modifications: 5-formyluracil (5-foU) opposite C
B3: 5-ohC/T duplex (dsDNA)
DNA 1: GAACTAGTGCATCCCCCGGGCTGC
DNA 2: GCAGCCCGGGGGATTCACTAGTTC
modifications: 5-hydroxycytosine (5-ohC) opposite T
B4: 5-ohC/A duplex (dsDNA)
DNA 1: GAACTAGTGCATCCCCCGGGCTGC
DNA 2: GCAGCCCGGGGGATACACTAGTTC
modifications: 5-hydroxycytosine (5-ohC) opposite A
B5: 5-ohC/G duplex (dsDNA)
DNA 1: GAACTAGTGCATCCCCCGGGCTGC
DNA 2: GCAGCCCGGGGGATGCACTAGTTC
modifications: 5-hydroxycytosine (5-ohC) opposite G
B6: 5-ohC/C duplex (dsDNA)
DNA 1: GAACTAGTGCATCCCCCGGGCTGC
DNA 2: GCAGCCCGGGGGATCCACTAGTTC
modifications: 5-hydroxycytosine (5-ohC) opposite C

In the first data set the target is T1, His-KsgA (9-273). Description: EMSA; 100 pmol protein, 10 fmol DNA, 500 ng calf thymus DNA; EMSA, 10 ul, 4 C, 60 min: 25 mM Tris-HCl pH 8.0, 500 uM DTT, 500 uM EDTA, 10% glycerol, 25 mM NaCl, 25 mM KCl, 10 uM ZnCl2, 125 uM each dNTP, 4 mM spermidine, 500 ng calf thymus DNA, 10 fmol 32P-dsDNA, 100 pmol protein; 12% PAGE. The settings on record: protein: recombinant; tags: His (pET21a(+), BamHI/XhoI); label: 5'-32P.
In the case of B1, the binding result is “binds”.
For B2, the binding result is “binds”.
Consider B3, for which the binding result was “binds”.
For the molecule B4, the binding result is “binds”.
The same measure, in the same setting: the same measure for B5: “binds”.
For B6, the binding result was “binds”.

A further data set deals with T2, His-KsgA (1-213). The description is as above. To be noted: protein: recombinant; tags: His (pET21a(+), BamHI/XhoI); label: 5'-32P.
On to B1, for which the binding result is reported as “no binding”.
With B3, the binding result is reported as “no binding”.
With B4, the binding result is on record as “no binding”.
With B5, the binding result is reported as “no binding”.
As for B6, the binding result is “no binding”.

In a further data set the target is T3, His-KsgA (1-273). Described as above. The settings on record: protein: recombinant; tags: His (pET21a(+), BamHI/XhoI); label: 5'-32P.
On to B1, for which the binding result is “binds”.
Same read-out and setting: for B2 the value was “binds”; for B3, “binds”.
Take B4: the binding result is recorded as “binds”.
As for B5, the binding result is recorded as “binds”.
On the same count and under the same terms, for B6 the value was “binds”.
